Data on one protein can be found in article PMC2757159 (Biochemistry, 2009).

The stoichiometry N is a count of units in the complex or per binding partner.

The series deals with the molecule itself. In words: SEC. (In general: SEC sorts molecules by how far they enter the pores of the column.)

B1: human H46R/H48Q copper-zinc superoxide dismutase (SOD1) double mutant (enzyme)
chain: not shown
Consider B1, for which the “stoichiometry N” value was 2.
